Substrate in this data set: Nc1ncnc2c1ncn2[C@@H]1O[C@H](COP(=O)(O)OP(=O)(O)OP(=O)(O)O)[C@@H](O)[C@H]1O
As to the kind of experiment: malachite green ATP hydrolysis assay, Michaelis-Menten Km. It is filed as biochemical, Homo sapiens. The settings on record: Mg2+ N-terminal ATPase site.

B1: Type IIα DNA topoisomerase (TopoIIα) (Homo sapiens) (protein)
chain: MEVSPLQPVNENMQVNKIKKNEDAKKRLSVERIYQKKTQLEHILLRPDTYIGSVELVTQQMWVYDEDVGINYREVTFVPGLYKIFDEILVNAADNKQRDPKMSCIRVTIDPENNLISIWNNGKGIPVVEHKVEKMYVPALIFGQLLTSSNYDDDEKKVTGGRNGYGAKLCNIFSTKFTVETASREYKKMFKQTWMDNMGRAGEMELKPFNGEDYTCITFQPDLSKFKMQSLDKDIVALMVRRAYDIAGSTKDVKVFLNGNKLPVKGFRSYVDMYLKDKLDETGNSLKVIHEQVNHRWEVCLTMSEKGFQQISFVNSIATSKGGRHVDYVADQIVTKLVDVVKKKNKGGVAVKAHQVKNHMWIFVNALIENPTFDSQTKENMTLQPKSFGSTCQLSEKFIKAAIGCGIVESILNWVKFKAQVQLNKKCSAVKHNRIKGIPKLDDANDAGGRNSTECTLILTEGDSAKTLAVSGLGVVGRDKYGVFPLRGKILNVREASHKQIMENAEINNIIKIVGLQYKKNYEDEDSLKTLRYGKIMIMTDQDQDGSHIKGLLINFIHHNWPSLLRHRFLEEFITPIVKVSKNKQEMAFYSLPEFEEWKSSTPNHKKWKVKYYKGLGTSTSKEAKEYFADMKRHRIQFKYSGPEDDAAISLAFSKKQIDDRKEWLTNFMEDRRQRKLLGLPEDYLYGQTTTYLTYNDFINKELILFSNSDNERSIPSMVDGLKPGQRKVLFTCFKRNDKREVKVAQLAGSVAEMSSYHHGEMSLMMTIINLAQNFVGSNNLNLLQPIGQFGTRLHGGKDSASPRYIFTMLSSLARLLFPPKDDHTLKFLYDDNQRVEPEWYIPIIPMVLINGAEGIGTGWSCKIPNFDVREIVNNIRRLMDGEEPLPMLPSYKNFKGTIEELAPNQYVISGEVAILNSTTIEISELPVRTWTQTYKEQVLEPMLNGTEKTPPLITDYREYHTDTTVKFVVKMTEEKLAEAERVGLHKVFKLQTSLTCNSMVLFDHVGCLKKYDTVLDILRDFFELRLKYYGLRKEWLLGMLGAESAKLNNQARFILEKIDGKIIIENKPKKELIKVLIQRGYDSDPVKAWKEAQQKVPDEEENEESDNEKETEKSDSVTDSGPTFNYLLDMPLWYLTKEKKDELCRLRNEKEQELDTLKRKSPSDLWKEDLATFIEELEAVEAKEKQDEQVGLPGKGGKAKGKKTQMAEVLPSPRGQRVIPRITIEMKAEAEKKNKKKIKNENTEGSPQEDGVELEGLKQRLEKKQKREPGTKTKKQTTLAFKPIKKGKKRNPWSDSESDRSSDESNFDVPPRETEPRRAATKTKFTMDLDSDEDFSDFDEKTDDEDFVPSDASPPKTKTSPKLSNKELKPQKSVVSDLEADDVKGSVPLSSSPPATHFPDETEITNPVPKKNVTVKKTAAKSQSSTSTTGAKKRAAPKGTKRDPALNSGVSQKPDPAKTKNRRKRKPSTSDDSDSNFEKIVSKAVTSKKSKGESDDFHMDFDSAVAPRAKSVRAKKPIKYLEESDEDDLF
notes: recombinant human TopoIIα
The term Km denotes the substrate concentration at which the rate is half of its maximum. For B1, the Km amounted to 390 ± 50 µM.

These data come from publication PMC3229241, “Neoamphimedine Circumvents Metnase-Enhanced DNA Topoisomerase IIα Activity Through ATP-Competitive Inhibition” (2011).
